# Measurements from publication doi:10.1101/2025.02.18.638932, “CHIP protects lysosomes from CLN4 mutant-induced membrane damages” (bioRxiv, 2025).
# B1: recombinant human DNAJC5 L116Δ (natural protein, UniProt Q9H3Z4 1-198, looked up)
# chain: MADQRQRSLSTSGESLYHVLGLDKNATSDDIKKSYRKLALKYHPDKNPDNPEAADKFKEINNAHAILTDATKRNIYDKYGSLGLYVAEQFGEENVNTYFVLSSWWAKALFVFCGLTCCYCCCCLCCCFNCCCGKCKPKAPEGEETEFYVSPEDLEAQLQSDEREATDTPIVIQPASATETTQLTADSHPSYHTDGFN
# notes: DNAJC5, human, CLN4 disease mutant L116Δ (p.L116del, c.346-348del); A TEV cleavage site lies between the GST tag and the protein; also called hDNAJC5 L116Δ; purified L116Δ mutant; source: E. coli BL21(DE3), purified (Glutathione Sepharose, eluted by TEV protease)
# Target: the molecule itself
# Assay: immunoblotting of SDS-resistant high molecular weight species; purified DNAJC5 protein incubated with buffer or calf liver cytosol with or without ATP at 37 °C for 30 min, then immunoblotting
protein,measurement,value
B1,binding result,binds
